Test [1] addresses human CD47 (hCD47) expressed on cells (human) (UniProt Q08722). Put plainly: flow cytometry, Raji cells.
Test [2] shares this target. Put plainly: flow cytometry, Raji cells, competition with His-hSIRPα.
For test [3], the target named is hu-sCD47-6His; extracellular domain of human CD47 antigen with 6His-tag (human). Put plainly: SPR Biacore.
For test [4] the target is unchanged. The test is described as follows: ELISA, coated glycosylated hCD47-His.
The target of test [5] is N-deglycosylated soluble hCD47-His (PNGase treated) (human). Put plainly: ELISA, coated N-deglycosylated hCD47-His.
Test [6] concerns the target hu-sCD47-6His; extracellular domain of human CD47 antigen with 6His-tag (human). The test is described as follows: ELISA, one-site binding saturation fit, glycosylated hCD47.
In test [7] the target is N-deglycosylated soluble hCD47-His (PNGase treated) (human). Put plainly: ELISA, one-site binding saturation fit, deglycosylated hCD47.

humanized 5F9 (hu5F9; vh2-vl2) (antibody), sequence (VH): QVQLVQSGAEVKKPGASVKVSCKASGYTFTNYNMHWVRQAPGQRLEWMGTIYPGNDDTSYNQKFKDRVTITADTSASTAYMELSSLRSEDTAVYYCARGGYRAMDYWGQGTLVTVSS
humanized 5F9 (hu5F9; vh2-vl2) (antibody), sequence (VL): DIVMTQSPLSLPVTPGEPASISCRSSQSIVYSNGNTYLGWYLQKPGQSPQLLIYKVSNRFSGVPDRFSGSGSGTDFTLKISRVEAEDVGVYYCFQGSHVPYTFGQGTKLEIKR
B6H12 (mouse IgG1, Abcam) (antibody), sequence (VH): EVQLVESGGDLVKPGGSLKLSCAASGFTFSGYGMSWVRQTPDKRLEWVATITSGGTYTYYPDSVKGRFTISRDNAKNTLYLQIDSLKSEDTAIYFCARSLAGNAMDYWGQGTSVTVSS
B6H12 (mouse IgG1, Abcam) (antibody), sequence (VL): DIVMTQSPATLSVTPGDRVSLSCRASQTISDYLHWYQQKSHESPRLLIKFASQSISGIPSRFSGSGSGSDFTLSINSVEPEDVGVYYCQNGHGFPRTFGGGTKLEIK

With B6H12 (mouse IgG1, Abcam) (antibody), the EC50 in test [1] was 2.93 µg/mL.
With chimeric 5F9 (c5F9) (antibody), the IC50 in test [2] stood at 0.209 µg/mL.
Turning to “humanized 5F9 (hu5F9; vh2-vl2) (antibody)”, in test [3], the Kd turned out to be 0.73 nM. Further, in test [4], the EC50 amounted to 0.0547 nM and the EC95 worked out at 1.96 nM. Moreover, in test [5], the EC50 was 0.254 nM and the EC95 was 54 nM. In test [6], this substance yielded a Bmax of 2.66 OD value and an equilibrium binding constant of 49 pM. Moreover, in test [7], the Bmax2 was determined as 1.4 OD value and the equilibrium binding constant worked out at 129 pM.

These data come from patent US20220356245A1.
